Data taken from US20260116991A1 (HAINAN SIMCERE ZAIMING PHARMACEUTICAL, published 2026).

Legend:
monkey GPC3-His protein [1] = biological target: T1, monkey GPC3-His protein (monkey); test: ELISA, monkey GPC3-His coated;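 further: Plate-coated antigen at 1 µg/mL, antibody binding 2 h at 37 °C, detected with HRP-labeled secondary antibody and TMB, absorbance at 450 nm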
T1 construct: Bought recombinant protein; also called monkey GPC3 protein

human GPC3-His protein = biological target: T2, human GPC3-His protein (human, UniProt P51654 25-559); test: SPR, antibody captured on Protein A chip, human GPC3-His analyte;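 further: measured at 25 °C flow cell, human GPC3-His injected at five concentrations up to 200 nM, 240 s association, up to 600 s dissociation, double-referenced, fitted to Langmuir 1:1 model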
T2 construct: also called human GPC3 protein; not shown: His tag

monkey GPC3-His protein [2] = biological target: T1, monkey GPC3-His protein; test: SPR, antibody captured on Protein A chip, monkey GPC3-His analyte;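 further: run at 25 °C with 240 s association and up to 600 s dissociation, double-referenced, kinetics fitted to a 1:1 Langmuir binding model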
Description: The flow cell was set at 25° C. The sample block was set at 16° C. Both were pretreated with the running buffer. In each cycle, first, the antibody to be tested was captured using the Protein A chip, and then a single concentration of GPC3 antigen protein was injected. […] The association was determined by injecting different concentrations of human GPC3-His in the solution and maintaining for 240 s, wherein the flow rate was 30 μL/min, and the protein was diluted at a 1:1 dilution ratio from 200 nM to obtain 5 concentrations in total. The dissociation phase was monitored for up to 600 s and triggered by switching from the sample solution to the running buffer. The surface was regenerated by washing with 10 mM glycine solution (pH 1.5) at a flow rate of 30 μL/min for 30 s. The difference in bulk refractive index was corrected by subtracting the responses obtained from the goat anti-human Fc surface. Blank injections (double reference) were also subtracted. To calculate the apparent KD and other kinetic parameters, the Langmuir 1:1 model was used.

[3] = biological target: T3, monkey GPC3 on HEK293T-monkey GPC3 cells (monkey); test: FACS on HEK293T-monkey GPC3 cells;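 further: flow cytometry binding of test antibodies to the cells, read as mean fluorescence intensity, with half-maximal concentration taken from fitted curves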
T3 construct: whole, on cells

Binder	OD450 at 0.0001 nM (monkey GPC3-His protein [1])	OD450 at 0.001 nM (monkey GPC3-His protein [1])	OD450 at 0.01 nM (monkey GPC3-His protein [1])	OD450 at 0.1 nM (monkey GPC3-His protein [1])	OD450 at 1 nM (monkey GPC3-His protein [1])	OD450 at 10 nM (monkey GPC3-His protein [1])	OD450 at 100 nM (monkey GPC3-His protein [1])	Kd (human GPC3-His protein)	koff (human GPC3-His protein)	kon (human GPC3-His protein)	Kd (monkey GPC3-His protein [2])	koff (monkey GPC3-His protein [2])	kon (monkey GPC3-His protein [2])	EC50 [3]	Max MFI [3]
F3.54.12 (antibody, human IgG1, kappa, V domains shown, Human-murine chimeric antibody) VH: QVQLQQSGAELVRPGASVKLSCKASGYTFTDYEMHWVKQTPVHGLEWIGAIDPETGNTAYIQKFKGKATLTTDKSSSTAYMELRSLTSEDSAVYYCTRFYSYSHWGQGTTLTVSS VL: DVVMTQTPLSLPVSLGDQASISCRSSQSLVHSNGNTYLHWYLQKPGQSPKLLIYKVSNRFSGVPDRFSGSSSGTDFTLKISRVEAEDLGVYFCSQNTHVPPTFGGGTKLEIKR	0.08 OD450	0.1 OD450	0.41 OD450	1.57 OD450	2.21 OD450	2.32 OD450	2.76 OD450	4.09 nM	0.00112 s⁻¹	275000 M⁻¹ s⁻¹	2.17 nM	0.00117 s⁻¹	541000 M⁻¹ s⁻¹	0.72 nM	115000 MFI
F2.154.1 (antibody, human IgG1, kappa, V domains shown, Human-murine chimeric antibody) VH: QVQLQQSGAELVRPGASVKLSCKASGYRFTDYEMHWVKQTPVHGLEWIGTIDPETGNTAYTQKFMDKATLTADKSSSTAYMELRSLTSEDSAVYYCTRGYSFTYWGQGTLATVSA VL: DVLMTQTPLSLPVSLGDQASISCRSSQNIVHSNGNTYLQWYLQKPGQSPKLLIFKVSNRFSGVPDRFSGSGSGTDFTLKISRVEAEDLGVYYCFQGSHVPFTFGTGTKLEIKR	0.05 OD450	0.1 OD450	0.46 OD450	1.69 OD450	2.38 OD450	2.49 OD450	2.24 OD450	1.21 nM	0.000563 s⁻¹	466000 M⁻¹ s⁻¹	0.706 nM	0.000504 s⁻¹	713000 M⁻¹ s⁻¹	0.41 nM	12400 MFI

The remaining binders from weak to strong by Kd (human GPC3-His protein), led by results:

OD450 at 0.0001 nM (monkey GPC3-His protein [1])	OD450 at 0.001 nM (monkey GPC3-His protein [1])	OD450 at 0.01 nM (monkey GPC3-His protein [1])	OD450 at 0.1 nM (monkey GPC3-His protein [1])	OD450 at 1 nM (monkey GPC3-His protein [1])	OD450 at 10 nM (monkey GPC3-His protein [1])	OD450 at 100 nM (monkey GPC3-His protein [1])	Kd (human GPC3-His protein)	koff (human GPC3-His protein)	kon (human GPC3-His protein)	Kd (monkey GPC3-His protein [2])	koff (monkey GPC3-His protein [2])	kon (monkey GPC3-His protein [2])	EC50 [3]	Max MFI [3]	Binder
0.06 OD450	0.1 OD450	0.42 OD450	1.69 OD450	2.37 OD450	2.58 OD450	3.01 OD450	0.997 nM	0.000361 s⁻¹	362000 M⁻¹ s⁻¹	0.725 nM	0.000386 s⁻¹	532000 M⁻¹ s⁻¹	0.85 nM	110000 MFI	F3.38.7 (antibody, human IgG1, kappa, V domains shown, Human-murine chimeric antibody) VH: QVQLQQSGAELVRPGASVKLSCKASGYTFTDYEIHWVKQTPVLGLEWIGAIDPKTGNTAYNQKFMGKATLTADKSSTTAYMDLRSLTSEDSAVYYCTRYFSFAYWGQGTLVTVSA VL: DVLMTQTPLSLPVSLGDQASISCRSSQTFVHSNGNTYLQWYLQKPGQSPKLLIYKVSNRFSGVPDRFSGSGSGTDFTLKISRVEAEDLGVYYCFQGSHVPYTFGSGTKLEIKR
0.05 OD450	0.06 OD450	0.16 OD450	0.62 OD450	1.96 OD450	2.55 OD450	2.49 OD450	0.545 nM	0.000231 s⁻¹	424000 M⁻¹ s⁻¹	0.415 nM	0.000261 s⁻¹	631000 M⁻¹ s⁻¹	2.58 nM	106000 MFI	F3.81.19 (antibody, human IgG1, kappa, V domains shown, Human-murine chimeric antibody) VH: QVQLQQSGAELVRPGASVKLSCKASGYTFTDYEMHWVKQTPVHGLEWIGTIDPETGNTAYNQKFKGKATLTADKSSSTAYMELRSLTSEDSAVYYCTRPYSLTYWGQGTLVTVSA VL: DVLLTQTPLSLPVSLGDQASISCRSSQSFVHSNGDTYLQWYLQKPGQSPKLLIYKVSNRFSGVPDRFSGSGSGTDFTLKISRVEAEDLGVYYCFQGSHVPYTFGSGTKLEIKR
